The source of these data is PMC11544104.

The subject of data set [1] is BAF complex, FLAG-DPF2 WT (293T) (human). In words: pull-down. As to conditions: histone H3K56ac (recombinant Xenopus laevis octamer).
Data set [2] has as its target H3K56ac-mononucleosome assembled with 35N35 DNA (Xenopus laevis). The data set is described as follows: pull-down.

Turning to 35N35 mononucleosome, H3K56ac, the binding signal (normalized bound DPF2 (reference)) in data set [1] is 1.
Substance “BAF complex containing DPF2 C330W (from UniProt Q92785;P51532)” gave a fold reduction of the preferential interaction against the WT complex in data set [2] of 5 fold.
In data set [2], “BAF complex containing DPF2 R350H (from UniProt Q92785;P51532)” yielded a fold reduction of the preferential interaction against the WT complex of 5 fold.
On the same count and under the same terms, next, “BAF complex containing DPF2 W369R (from UniProt Q92785;P51532)”: 5 fold.
